Four molecules from patent US20230094083A1 (YEDA RESEARCH AND DEVELOPMENT, published 2023) can be followed below.

For experiment [1], the target named is T1, human Grp94 on the cell surface (senescent IMR-90 human lung fibroblasts; IPF patient lung fibroblasts) (human, UniProt P14625 22-803).
T1 construct: whole, on cells; also called cell surface Grp94; Grp94 on the cell surface of senescent IMR-90 cells
The experiment can be described thus: flow cytometry on senescent human IMR-90 cells. Background: In flow cytometry, cells or beads pass a laser one at a time.

The target in experiment [2] is T1, human Grp94 on the cell surface …. The experiment can be described thus: immunofluorescence on senescent human IMR-90 cells.
The target of experiment [3] is T2, mouse Grp94 on the cell surface (Meth A sarcoma cells; senescent primary mouse lung fibroblasts) (mouse, UniProt P08113 22-802).
T2 construct: whole, on cells; also called Grp94 expressed on the surface of Meth A cells
The experiment can be described thus: flow cytometry on senescent primary mouse lung fibroblasts.

Experiment [4] addresses T2, mouse Grp94 on the cell surface (Meth A …). The experiment can be described thus: ranking of clones by flow cytometry on Meth A sarcoma cells.
For experiment [5] the target is unchanged. Description: flow cytometry, neat hybridoma supernatant on Meth A sarcoma cells. As to the method:
(§1) Mouse Meth A sarcoma cells (Cat. 400284 CLS, Germany) were cultured using standard tissue culture conditions in RPMI-1640. Cells were seeded at 1×10⁵ in 100 microliter FACS buffer in 96 well U bottom FACS plates, pelleted and resuspended in 100 microliters neat or 1 in 2 diluted supernatant sample for 30 minutes at 4° C. Cells were washed twice with PBS and resuspended in 100 microliter secondary antibody, AF647 conjugated goat anti-mouse IgG A21236 (Thermo Fisher Scientific) at 2 micrograms/ml in FACS buffer for 30 minutes at 4° C. Cells were washed twice with PBS and resuspended in 100 microliters water containing 10% CellFix (Becton Dickinson, UK). Median fluorescence intensity was measured using an Attune NxT Acoustic Focusing Cytometer (Thermo Fisher Scientific) with autosampler using acquisition parameters optimized with unstained cells and secondary labeled cells: FSC:100, SSC:340, FL1:370. The acquisition rate was 100 microliter/minute stopping at 10,000 R1 events. Positive controls consisted of commercially sourced mouse anti-Grp94 antibodies MA1-10892 (Thermo Fisher Scientific) and MAB7606 (R&D System) at 2 micrograms/ml while negative control consisted of Meth A cells incubated with secondary antibody alone.

Experiment [6] concerns the target T1, human Grp94 on the cell surface …. The experiment can be described thus: flow cytometry, senescent against proliferating human IMR-90 cells.
The target of experiment [7] is T2, mouse Grp94 on the cell surface (Meth A …). The experiment can be described thus: flow cytometry, hybridoma supernatant diluted 1:2 on Meth A sarcoma cells. The method, then:
as §1

For experiment [8] the target is unchanged. Description: flow cytometry, senescent against proliferating primary mouse lung fibroblasts.
Experiment [9] has as its target human Grp94 on the cell surface (senescent IMR-90 human lung fibroblasts; IPF patient lung fibroblasts) (human) (UniProt P14625). The experiment can be described thus: cell-based or functional assay.
Experiment [10] deals with T3, recombinant human Grp94 (Creative Biomart, USA) (human, UniProt P14625 22-803, limits assumed).
T3 construct: Bought recombinant protein; It served as immunogen, ELISA coat, Biacore analyte and the immobilised ligand in binning; also called rHGrp94; rhGrp94
Description: Biacore single cycle kinetics, antibody captured, Grp94 as analyte. As to the method:
Biacore single cycle analysis was performed on supernatants where the monoclonal antibody was captured with Fc on the surface as the ligand and Grp94 flowed over as the analyte. Kinetic experiments were performed on a Biacore T200 running Biacore T200 Control software V2.0.1 and Evaluation software V3.0 (GE Healthcare, Sweden). All single cycle kinetic experiments were run at 25° C. with HBS-P+ running buffer (pH 7.4) (GE Healthcare, UK) containing 1 mg/ml BSA.
Antibodies were diluted in running buffer and at the start of each cycle were loaded onto Fc2, Fc3, and Fc4 of the CM5 chip coupled with an anti-mouse capture antibody using standard amine chemistry (GE Healthcare, UK). IgGs were captured at a flow rate of 10 microliter/minute to give an immobilization level (RL) of approximately 160RU. The surface was then allowed to stabilize. Single cycle kinetic data was obtained with Grp94 (Creative BioMart, USA) as the analyte at a flow rate of 30 microliter/min to minimize any potential mass transport limitations. […] The association phase for the three injections of increasing concentrations of Grp94 was monitored for 150 seconds each time and a single dissociation phase was measured for 900 seconds following the last injection of Grp94. […]
(In general: In SPR one partner is held on a chip, and binding of the other changes the refractive index at the surface.)

T2 sequence (P08113 22-802): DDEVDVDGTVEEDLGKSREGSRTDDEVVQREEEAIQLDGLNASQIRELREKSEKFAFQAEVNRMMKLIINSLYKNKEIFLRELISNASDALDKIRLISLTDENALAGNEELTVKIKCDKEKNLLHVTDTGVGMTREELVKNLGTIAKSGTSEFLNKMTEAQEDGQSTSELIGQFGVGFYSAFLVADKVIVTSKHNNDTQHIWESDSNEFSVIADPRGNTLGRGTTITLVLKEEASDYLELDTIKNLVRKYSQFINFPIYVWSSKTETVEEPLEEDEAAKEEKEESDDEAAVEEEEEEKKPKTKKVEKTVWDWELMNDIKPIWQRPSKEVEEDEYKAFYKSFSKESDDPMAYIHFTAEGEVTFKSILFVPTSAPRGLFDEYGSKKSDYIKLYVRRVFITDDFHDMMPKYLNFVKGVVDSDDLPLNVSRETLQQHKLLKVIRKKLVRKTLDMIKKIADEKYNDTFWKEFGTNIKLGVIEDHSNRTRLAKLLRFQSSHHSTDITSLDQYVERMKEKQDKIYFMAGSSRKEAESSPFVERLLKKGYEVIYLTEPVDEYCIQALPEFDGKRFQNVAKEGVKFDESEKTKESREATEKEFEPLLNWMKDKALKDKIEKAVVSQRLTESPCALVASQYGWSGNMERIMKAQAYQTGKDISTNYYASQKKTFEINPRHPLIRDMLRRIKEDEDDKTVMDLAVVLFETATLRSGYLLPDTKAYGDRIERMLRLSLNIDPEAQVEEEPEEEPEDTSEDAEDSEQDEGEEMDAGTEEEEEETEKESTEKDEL
T1 sequence (P14625 22-803): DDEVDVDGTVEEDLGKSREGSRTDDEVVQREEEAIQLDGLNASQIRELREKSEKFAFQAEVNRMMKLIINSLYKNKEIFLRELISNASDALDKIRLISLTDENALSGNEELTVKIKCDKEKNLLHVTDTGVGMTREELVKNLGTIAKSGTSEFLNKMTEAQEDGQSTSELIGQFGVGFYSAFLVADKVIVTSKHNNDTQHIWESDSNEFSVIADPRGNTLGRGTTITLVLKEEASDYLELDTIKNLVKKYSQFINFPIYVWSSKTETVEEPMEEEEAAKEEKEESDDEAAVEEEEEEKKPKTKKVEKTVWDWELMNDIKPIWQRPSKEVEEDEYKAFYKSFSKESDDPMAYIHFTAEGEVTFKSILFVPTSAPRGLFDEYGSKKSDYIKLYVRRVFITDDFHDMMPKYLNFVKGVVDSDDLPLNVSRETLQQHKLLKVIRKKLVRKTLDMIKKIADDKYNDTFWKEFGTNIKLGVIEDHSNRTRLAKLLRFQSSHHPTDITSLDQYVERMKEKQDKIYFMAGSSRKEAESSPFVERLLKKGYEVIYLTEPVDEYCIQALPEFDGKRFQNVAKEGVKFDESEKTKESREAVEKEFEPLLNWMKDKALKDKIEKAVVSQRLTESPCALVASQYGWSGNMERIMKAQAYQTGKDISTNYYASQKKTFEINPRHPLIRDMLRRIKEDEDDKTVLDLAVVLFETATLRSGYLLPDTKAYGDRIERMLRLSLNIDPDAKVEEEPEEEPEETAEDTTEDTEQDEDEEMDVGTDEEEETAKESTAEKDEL
T3 sequence (P14625 22-803 limits assumed): as the sequence (P14625 22-803) above
Sequence of human Grp94 on the cell surface (senescent IMR-90 human lung fibroblasts; IPF patient lung fibroblasts) (human) (P14625 22-803): as above

B1: anti-Grp94 monoclonal antibody clone 9A3 (antibody, mouse IgG2a, V domains shown)
VH: EVKLVESGGGLVKPGGSLKLSCAASGFTFRTYAMSWVRQTPEKRLEWVATITTGGPTYYPDNVKGRFTISRDNDRNILDLQMNSLRSEDTATYYCLRGATTGDYWGQGTTLIVSS
VL: DIVMTQSHKFMFTSVGDRVSITCKASHDVSTAVAWYQQKPGQYPKLLIYWASNRYTGVPDRFTGSGSGMDFTFTISSVQAEDLAVYYCQQHSSTPYTFGGGTRLEIK
notes: Mouse hybridoma antibody, tested as hybridoma supernatant
Consider B1, for which, in experiment [1], the “Human FACS plot (score 1-9, 1 = best)” value turned out to be 1 score. For the same molecule, the “Human IF (score 1-9, 1 = best)” value in experiment [2] turned out to be 4 score. The “Mouse FACS (score 1-9, 1 = best)” value in [3] stood at 4 score. Besides, the “Top 24 by Meth A (rank score, 1 = best binder)” value in [4] was 18 rank. Moreover, the “Meth A Binding (mean fluorescence intensity)” value (“Meth A Binding” below) in [5] was 732 RFU (mean fluorescence intensity). Moreover, the “Human FACS ratio (senescent cells / proliferating cells)” value in [6] was 6 ratio. Further, the “Meth A Dilution 1:2 (mean fluorescence intensity)” value in experiment [7] was 688 RFU (mean fluorescence intensity). Also, the “Mouse FACS ratio (senescent cells / proliferating cells)” value in experiment [8] was 7 ratio.

B2: optimized anti-Grp94 4C2 antibody (mouse IgG2a, Fc substitutions S239D and I332E, afucosylated) (antibody, part only; not given: mutant mouse IgG2a and light constant, V domains shown, not shown: another chain or arm of the molecule; a dimerising Fc or GST)
VH: EVQLVETGGGLVQPKGSLKLSCAASGFTFNTNAMNWVRQAPGKGLEWVARIRSKSNNYATYYADSVKDRFTISRDDSQSMLFLQMNNLKTEDTAMYYCVRDTLAWFAYWGQGTLVTVSA
VL: QIVLTQSPAIMSASPGEKVTITCSASSSVSYMHWFQQKPDTSPKLWIYSTSNLASGVPARFSASGSGTSYSLTISRMEAEDAATYYCQQKTSYPPTFGAGTKLELK
modifications: The Fc substitutions S239D and I332E (paragraph 258 prints the second as 1332E; paragraph 22 has I332E) and the afucosylated Fc glycan lie in the constant region. The letters given do not carry them.
B2: in experiment [9], the ADCC reporter-gene assay (Promega, mouse FcgRIV effector cells), activation of the reporter; target cells senescent IMR-90 amounted to 20 fold and the mFcγRIV ADCC Reporter Bioassay (Promega), activation of the reporter gene; target cells senescent IMR-90 was 20 fold.

B3: anti-Grp94 monoclonal antibody clone 4C2 (antibody, V domains shown)
VH: EVQLVETGGGLVQPKGSLKLSCAASGFTFNTNAMNWVRQAPGKGLEWVARIRSKSNNYATYYADSVKDRFTISRDDSQSMLFLQMNNLKTEDTAMYYCVRDTLAWFAYWGQGTLVTVSA
VL: QIVLTQSPAIMSASPGEKVTITCSASSSVSYMHWFQQKPDTSPKLWIYSTSNLASGVPARFSASGSGTSYSLTISRMEAEDAATYYCQQKTSYPPTFGAGTKLELK
notes: Mouse hybridoma antibody; It was tested as hybridoma supernatant in the screens (ELISA, Meth A FACS, Biacore, binning); also called 4C2 clone hybridoma supernatant; monoclonal antibody 4C2
In general, Kd refers to the constant that tells how readily two partners part at equilibrium. As to B3, the “Human FACS plot (score 1-9, 1 = best)” value in experiment [1] was found to be 4 score. The “Human IF (score 1-9, 1 = best)” value in experiment [2] was 1 score. Moreover, the “Top 24 by Meth A (rank score, 1 = best binder)” value in experiment [4] came to 1 rank. In addition, the dissociation constant (Kd) in [10] is 3.47 nM. Also, the “Meth A Binding” value in experiment [5] was 2690 RFU (mean fluorescence intensity). Moreover, the “Human FACS ratio (senescent cells / proliferating cells)” value in experiment [6] amounted to 1 ratio. For the same molecule, the “Meth A Dilution 1:2 (mean fluorescence intensity)” value in experiment [7] was 1990 RFU (mean fluorescence intensity). For the same molecule, the “Mouse FACS ratio (senescent cells / proliferating cells)” value in experiment [8] is 5 ratio.

B4: anti-Grp94 monoclonal antibody clone 5B2 (antibody, mouse IgG2a, V domains shown)
VH: EVQLVETGGGLVQPKGSLKLSCAASGFTFNTNAMNWVRQAPGKGLEWVARIRSKSNNYATYYADSVKDRFTISRDDSQNMFYLQMNNLKTEDTAMYYCVRDTATWFAYWGQGTLVTVSA
VL: QIVLTQSPALMSASPGEKVTIACSASSSVSYMHWFQQKPGTSPKLWIYSTSNLASGVPARFSGSGSGTSYSLTISRMEAEDAATYYCQQKTSYPPTFGSGTKLEIK
notes: as for B1
As for B4, in experiment [1], the “Human FACS plot (score 1-9, 1 = best)” value turned out to be 3 score. The “Human IF (score 1-9, 1 = best)” value in experiment [2] is 3 score. In addition, in experiment [4], the “Top 24 by Meth A (rank score, 1 = best binder)” value is 12 rank. The Kd in [10] stood at 2.5 nM. The “Meth A Binding” value in experiment [5] is 819 RFU (mean fluorescence intensity). In experiment [6], the “Human FACS ratio (senescent cells / proliferating cells)” value stood at 3 ratio. Besides, in [7], the “Meth A Dilution 1:2 (mean fluorescence intensity)” value is 746 RFU (mean fluorescence intensity). Further, the “Mouse FACS ratio (senescent cells / proliferating cells)” value in experiment [8] was determined as 6 ratio.
